According to publication PMC9670587:

Columns and labels:
FcγRIIA = FcγRIIA (UniProt P12318)
FcγRIIIA = FcγRIIIA (UniProt P08637)
Sequence of UniProt P08637 (P08637 17-254): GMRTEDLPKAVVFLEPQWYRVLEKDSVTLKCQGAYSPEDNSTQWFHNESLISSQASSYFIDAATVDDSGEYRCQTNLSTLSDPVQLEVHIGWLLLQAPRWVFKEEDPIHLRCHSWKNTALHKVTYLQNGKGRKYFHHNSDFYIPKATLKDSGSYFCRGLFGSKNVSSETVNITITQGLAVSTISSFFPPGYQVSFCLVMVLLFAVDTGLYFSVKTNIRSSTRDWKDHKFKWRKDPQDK

Sequence of UniProt P12318 (P12318 34-317): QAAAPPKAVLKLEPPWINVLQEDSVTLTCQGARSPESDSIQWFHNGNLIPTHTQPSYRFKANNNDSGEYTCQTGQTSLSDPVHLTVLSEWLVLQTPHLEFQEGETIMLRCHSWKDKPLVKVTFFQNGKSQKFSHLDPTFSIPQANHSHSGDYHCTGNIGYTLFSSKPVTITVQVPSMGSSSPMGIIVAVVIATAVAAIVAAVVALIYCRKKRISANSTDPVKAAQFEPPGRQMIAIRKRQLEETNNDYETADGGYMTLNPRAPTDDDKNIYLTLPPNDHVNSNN

Which results are given for “IMM01, recombinant SIRPα-Fc fusion protein”?
antibody-dependent cellular phagocytosis (ADCP), EC50 (FcγRIIA): 139 pM; antibody-dependent cellular phagocytosis (ADCP), EC50 (FcγRIIIA): 139 pM
